In experiment [1] the target is T1, Fc-CD94 (biotinylated Fc fusion protein with the extracellular domain of human CD94 fused at the C-terminal … (human, UniProt Q13241 32-179, biotinylated on the biotin-acceptor-tag (~90% biotinylation))).
T1 construct: extracellular domain; Expressed in Expi293 cells; also called CD94 Fc fusion protein; Fc-CD94 fusion protein; not shown: biotin-acceptor-tag at the N-terminus; human IgG1 Fc; TEV proteolysis site between the ECD and Fc-domain
T1 sequence (looked up): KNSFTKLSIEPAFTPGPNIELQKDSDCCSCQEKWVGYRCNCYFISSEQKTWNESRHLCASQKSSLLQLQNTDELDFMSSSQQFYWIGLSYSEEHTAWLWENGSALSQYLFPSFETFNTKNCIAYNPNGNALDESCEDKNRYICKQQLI
The experiment is described as follows: multipoint ELISA of purified Fab. (In general: In an ELISA, binding on a coated surface is turned into a signal by an enzyme label.)

Experiment [2] addresses T2, Fc-CD94 (biotinylated Fc fusion protein with the extracellular domain of human CD94 fused at the C-terminal … (human, UniProt Q13241 32-179, biotinylated on the biotin-acceptor-tag (~90% biotinylation))).
T2 chain: T1 sequence (looked up)
In words: ELISA.

Experiment [3] concerns the target T2, Fc-CD94 (biotinylated Fc fusion protein …). The experiment is described as follows: BLI (Octet). On the technique in general: In BLI a coated tip is dipped into the sample, and binding shifts an interference pattern.
Experiment [4] concerns the target T3, human CD94 expressed on Ba/F3 cells (human, UniProt Q13241 1-179).
T3 construct: whole, on cells; Mouse Ba/F3 cells stably transduced with a retroviral vector encoding human CD94; also called Ba/F3 transfectants expressing human CD94
T3 sequence (looked up): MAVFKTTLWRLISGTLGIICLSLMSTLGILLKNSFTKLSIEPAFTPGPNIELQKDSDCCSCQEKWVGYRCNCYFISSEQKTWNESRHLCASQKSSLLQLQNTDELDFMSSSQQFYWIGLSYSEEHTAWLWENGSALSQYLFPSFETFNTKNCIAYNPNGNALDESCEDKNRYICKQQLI
The experiment is described as follows: flow cytometry staining of Ba/F3 transfectants, PE-conjugated anti-human IgG1. The method, then:
Mouse Ba/F3 cells were stably transduced with retroviral vectors encoding human CD94 or with human CD94, human NKG2C, and human DAP12 as described in Lanier, L. L., B. C. Corliss, J. Wu, and J. H. Phillips. 1998. Association of DAP12 with activating CD94/NKG2C NK cell receptors. Immunity 8:693-701. PMID: 9655483. The Ba/F3 transfectants were incubated with phosphate buffered saline (unstained) or with the rab22 JIS002 rab 22 or JSI002 rab 23 antibodies, washed, and then stained with PE-conjugated anti-human IgG1 using standard methods.
(In general: In flow cytometry, cells or beads pass a laser one at a time.)

For experiment [5], the target named is T1, Fc-CD94 (biotinylated Fc fusion protein …). In words: assay not given; IgG affinity was measured by Octet BLI on immobilized Fc-CD94 (FIG. 3). The method, then: An octet assay was used to measure the affinity of IgG for the two binders JLS002-rAB22 and JLS002-rAB23. An Octet RED384 (ForteBio) instrument was used to measure the affinity of IgG for the two binders, JLS002-rAB22 and JLS002-rAB23. Fc-CD94 fusion protein was immobilized on a bio-layer interfrometry biosensor coated with streptavidin.
After blocking with PBST buffer (PBS+[…]) containing 10 μM of biotin, the IgGs being tested were loaded for 15 minutes followed by change to PBST buffer without IgG for ˜30 minutes. The kinetic binding curve was recorded.

B1: JLS002-rAB22 Fab (Fab, V domains shown)
VH: EVQLVESGGGLVQPGGSLRLSCAASGFNVYSSSIHWVRQAPGKGLEWVAYISSYSGYTYYADSVKGRFTISADTSKNTAYLQMNSLRAEDTAVYYCARGRYQGMDYWGQGTLVTVSS
VL: DIQMTQSPSSLSASVGDRVTITCRASQSVSSAVAWYQQKPGKAPKLLIYSASSLYSGVPSRFSGSRSGTDFTLTISSLQPEDFATYYCQQYAYHLITFGQGTKVEIK
notes: Fab expressed and purified after phage selection
Turning to B1, the binding result in experiment [1] was “binds”. The same molecule had an EC50 in experiment [2] of 3.42 nM.

B2: JLS002-rAB22 IgG (antibody, V domains shown)
VH: B1 VH
VL: B1 VL
notes: also called rab22 JIS002 rab 22
B2: binding in experiment [3] was put at a Kd of 1.74 nM. The binding result in experiment [4] and in experiment [5] was “binds” in each case.

B3: JLS002-rAB23 Fab (Fab, V domains shown)
VH: EVQLVESGGGLVQPGGSLRLSCAASGFNVYSSSIHWVRQAPGKGLEWVASISSYSGSTSYADSVKGRFTISADTSKNTAYLQMNSLRAEDTAVYYCARYGYYMSGAMDYWGQGTLVTVSS
VL: DIQMTQSPSSLSASVGDRVTITCRASQSVSSAVAWYQQKPGKAPKLLIYSASSLYSGVPSRFSGSRSGTDFTLTISSLQPEDFATYYCQQKKAYSLITFGQGTKVEIK
notes: as for B1
On to B3, for which the binding result in experiment [1] is reported as “binds”. This molecule yielded a concentration for a half-maximal effect (EC50) in experiment [2] of 2.98 nM.

B4: JLS002-rAB23 IgG (antibody, V domains shown)
VH: B3 VH
VL: B3 VL
notes: also called JSI002 rab 23
The molecule B4 had a Kd in experiment [3] of 0.94 nM. Also, the binding result in experiment [4] and in experiment [5] was “binds” each time.

One may read the EC50 as the concentration that produces a half-maximal response. Read a low EC50 as greater potency. The term Kd denotes the equilibrium constant for the complex coming apart. A low value points to a tighter complex.

(Values after US20240327523A1 (University of California, published 2024).)
